Blank lines part the entries; values can stand above or below the binder they belong to.
Key:
[1] = target: recombinant human VEGF-165 protein (Cat#11066-HNAH, Sino Biologicals) (human, UniProt P15692-4 27-191); experiment: ELISA, VEGF-165 coated 50 ng/well
[2] = target: PD-L1 on CHO-PD-L1 cells (Cat#YMAK-C006, ImmuneOnco) (UniProt Q9NZQ7 19-290, limits assumed); experiment: cell-based or functional assay
[3] = target: T1, monkey PD-L1 (Cat#90251-C08H, sino Biological) (monkey, UniProt G7PSE7 19-238); experiment: BLI (Gator), human Fc probe, Kinetics Assay mode, 25 C
T1 construct: also called PD-L1-his
T1 sequence (G7PSE7 entry or part of it C08H C08H limits assumed, form in doubt): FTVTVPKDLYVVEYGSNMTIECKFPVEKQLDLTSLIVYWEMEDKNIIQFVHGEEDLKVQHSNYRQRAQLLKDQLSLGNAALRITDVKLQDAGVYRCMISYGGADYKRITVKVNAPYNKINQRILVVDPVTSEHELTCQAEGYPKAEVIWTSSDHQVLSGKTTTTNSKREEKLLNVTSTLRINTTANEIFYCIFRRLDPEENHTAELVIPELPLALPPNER

Chain of PD-L1 on CHO-PD-L1 cells (Cat#YMAK-C006, ImmuneOnco) (Q9NZQ7 19-290 limits assumed): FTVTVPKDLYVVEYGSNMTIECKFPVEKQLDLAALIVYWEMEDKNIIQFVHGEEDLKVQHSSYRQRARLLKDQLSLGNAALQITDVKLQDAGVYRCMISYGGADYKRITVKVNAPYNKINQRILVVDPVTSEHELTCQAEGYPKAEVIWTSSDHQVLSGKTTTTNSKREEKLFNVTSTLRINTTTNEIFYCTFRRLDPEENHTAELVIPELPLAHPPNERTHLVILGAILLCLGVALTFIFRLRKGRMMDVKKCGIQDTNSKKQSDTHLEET
Chain of recombinant human VEGF-165 protein (Cat#11066-HNAH, Sino Biologicals) (P15692 other isoform, or with tags, fused parts or gaps limits assumed): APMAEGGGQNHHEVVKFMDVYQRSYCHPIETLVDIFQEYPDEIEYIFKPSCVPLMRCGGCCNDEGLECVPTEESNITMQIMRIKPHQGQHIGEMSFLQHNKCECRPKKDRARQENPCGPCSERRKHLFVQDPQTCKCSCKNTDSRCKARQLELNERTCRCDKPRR

binding result [1]: binds
B1: IMM2519 (bispecific antibody, human IgG1, kappa)
heavy: QVQLVQSGAEVKKPGASVKVSCKASGYTFTSNWMHWVRQAPGQGLEWMGMIHPNSGSSNYNEKFKSRVTMTRDTSTSTVYMELSSLRSEDTAVYYCARSYYGSSPYYFDYWGQGTLVTVSSASTKGPSVFPLAPSSKSTSGGTAALGCLVKDYFPEPVTVSWNSGALTSGVHTFPAVLQSSGLYSLSSVVTVPSSSLGTQTYICNVNHKPSNTKVDKRVEPKSCDKTHTCPPCPAPELLGGPSVFLFPPKPKDTLMISRTPEVTCVVVDVSHEDPEVKFNWYVDGVEVHNAKTKPREEQYNATYRVVSVLTVLHQDWLNGKEYKCKVSNKALPAPIAATISKAKGQPREPQVYTLPPSREEMTKNQVSLTCLVKGFYPSDIAVEWESNGQPENNYKTTPPVLDSDGSFFLYSKLTVDKSRWQQGNVFSCSVMHEALHNHYTQKSLSLSPGK
light: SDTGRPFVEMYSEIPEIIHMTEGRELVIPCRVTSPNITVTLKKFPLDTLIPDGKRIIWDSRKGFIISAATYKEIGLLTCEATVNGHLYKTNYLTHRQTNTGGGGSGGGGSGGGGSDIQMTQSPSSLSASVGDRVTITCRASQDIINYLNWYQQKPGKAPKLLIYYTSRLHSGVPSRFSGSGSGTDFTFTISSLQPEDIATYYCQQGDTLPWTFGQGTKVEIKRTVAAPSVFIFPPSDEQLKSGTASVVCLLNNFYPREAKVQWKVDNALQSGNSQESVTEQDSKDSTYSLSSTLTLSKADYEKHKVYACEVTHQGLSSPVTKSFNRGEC
notes: Anti-PD-L1 IgG IMM2515H with VEGFR1D2 linked by a (G4S)3 linker to the N-terminus of each light chain; also called recombinant fusion protein

ADCC (%lysis) against Raji-PD-L1 cells by NK92MI cells expressing FcgRIIIa (158V) [2]: 6 fold lower than IMM2515H
Kd [3]: 441 pM
koff [3]: 0.000218 s⁻¹
kon [3]: 494000 M⁻¹ s⁻¹
B2: IMM2518 (bispecific antibody, human IgG1, kappa)
heavy: SDTGRPFVEMYSEIPEIIHMTEGRELVIPCRVTSPNITVTLKKFPLDTLIPDGKRIIWDSRKGFIISAATYKEIGLLTCEATVNGHLYKTNYLTHRQTNTGGGGSGGGGSGGGGSQVQLVQSGAEVKKPGASVKVSCKASGYTFTSNWMHWVRQAPGQGLEWMGMIHPNSGSSNYNEKFKSRVTMTRDTSTSTVYMELSSLRSEDTAVYYCARSYYGSSPYYFDYWGQGTLVTVSSASTKGPSVFPLAPSSKSTSGGTAALGCLVKDYFPEPVTVSWNSGALTSGVHTFPAVLQSSGLYSLSSVVTVPSSSLGTQTYICNVNHKPSNTKVDKRVEPKSCDKTHTCPPCPAPELLGGPSVFLFPPKPKDTLMISRTPEVTCVVVDVSHEDPEVKFNWYVDGVEVHNAKTKPREEQYNATYRVVSVLTVLHQDWLNGKEYKCKVSNKALPAPIAATISKAKGQPREPQVYTLPPSREEMTKNQVSLTCLVKGFYPSDIAVEWESNGQPENNYKTTPPVLDSDGSFFLYSKLTVDKSRWQQGNVFSCSVMHEALHNHYTQKSLSLSPGK
light: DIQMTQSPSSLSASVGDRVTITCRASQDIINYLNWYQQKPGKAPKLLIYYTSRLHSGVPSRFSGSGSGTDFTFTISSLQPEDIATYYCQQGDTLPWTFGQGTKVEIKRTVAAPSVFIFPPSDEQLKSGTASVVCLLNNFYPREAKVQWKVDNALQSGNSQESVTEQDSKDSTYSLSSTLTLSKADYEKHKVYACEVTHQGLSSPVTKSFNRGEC
notes: Anti-PD-L1 IgG IMM2515H with VEGFR1D2 linked by a (G4S)3 linker to the N-terminus of each heavy chain; also called recombinant fusion protein
